Values quoted from earlier work as cited in publication PMC5559722.
Like-named read-outs stand apart in the source and are kept apart here.

Tests used:
p97 N-domain [1] = target: p97 N-domain (UniProt P55072)
p97 N-domain [2] = target: p97 N-domain (UniProt P55072); remark: listed apart in the source
p97 N-domain [3] = target: p97 N-domain (UniProt P55072); test: ITC
p97 N-domain [4] = target: p97 N-domain (UniProt P55072); remark: listed apart in the source
RNF31 PUB (Homo sapiens) = RNF31 PUB (Homo sapiens) (UniProt Q96EP0)
[5] = target: p97 C-terminal peptide (Homo sapiens) (UniProt P55072)

Substance: FAF1 UBX (from UniProt Q9UNN5)
- Kd (p97 N-domain [1]): 1000 nM

Substance: NPL4 UBXL (from UniProt Q8TAT6)
- Kd (p97 N-domain [2]): 18000 nM

Substance: OTU1 UBXL (from UniProt Q5VVQ6)
- Kd (p97 N-domain [3]): 700 nM

Substance: p47 UBX (from UniProt Q9UNZ2)
- Kd (p97 N-domain [4]): 1000 nM

Substance: OTULIN (from UniProt Q96BN8)
- Kd (RNF31 PUB (Homo sapiens)): 300 nM

Substance: RNF31 PUB (from UniProt Q96EP0)
- Kd [5]: 50000 nM
